Results reported in the supplement of paper PMC12042874.
± gives the uncertainty stated by the source.

Experiment: amyloid nucleation score (Sup35N fusion, yeast selection) (log enrichment); library NNK2; higher = more nucleation; inactive = no reads after selection
Summary of the method: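 Yeast lacking psi expressed peptides of 20 random codons fused to Sup35N, received 100 μM copper sulfate for 24 hours, and were then grown for 7 days at 30°C on medium lacking adenine and uracil. Illumina sequencing of input and output plasmid inserts provided the reads. Nucleation scores are DiMSum log enrichments of output over input, centred on the mode of non-aggregating sequences. Any sequence with under 100 input reads was excluded.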

| Substance | amyloid nucleation score |
| --- | --- |
| KDLEFGRCIDDDYPLSRSF | 0.141 ± 0.46 |
| LPFLPSCVVEKQVEYVWIRG | 0.332 ± 0.25 |
| EAWADGSIMYSYTRPDGDKV | 0.421 ± 0.24 |
| SGILREPVMIQVSVLQEQHW | 5.025 ± 0.045 |
| CNGRVKAYVSQNYVSEYGVL | -0.1 ± 0.2 |
| CLFVQSRIDYALNNLTVC | -0.755 ± 0.48 |
| GKNMRYFRQTGCH | -0.39 ± 0.21 |
| MYKGA | 0.595 ± 0.62 |
| RMNEACTWTLIVYFYRSLL | 1.5 ± 0.12 |
| STLVIVCFYICRHFSTYRVR | -0.832 ± 0.32 |
| IFHRLKDLT | -1.24 ± 0.48 |
| KGCVLCNIFCRSKGVVGSTL | 8.737 ± 0.035 |
| RFCRVDKWEVRQGM | 5.339 ± 0.051 |
| VYLVKAGLYSRMNQLLPLCS | 0.607 ± 0.34 |
| GVARESRAGS | 4.96 ± 0.066 |
| MASITDDRADLHH | inactive |
| FTFVWNVVQFGTFYGSHLRG | 4.5 ± 0.071 |
| FCSGVLQMLLISLDNLGRVS | -0.017 ± 1 |
| LYYAQSANRRLSGAWRFLF | -0.281 ± 0.79 |
| TWWIELVKLGEMVVK | 0.313 ± 0.65 |
| NADGYSLMQRSNFSQSNGYL | inactive |
| PMVYRYKGRHIN | -1.27 ± 0.62 |
| DCHSMQFVVSFNT | -0.705 ± 1.1 |
| SLCQSLDSWCYFLLWHWQWY | -0.637 ± 1.1 |
| FSLSQ | 3.55 ± 0.11 |

| Substance | amyloid nucleation score |
| --- | --- |
| QHRFFQYYRS | -1.5 ± 0.64 |
| IVCQDFYTAWEYYTYAHR | 3.07 ± 0.048 |
| SRSVNCAVFNADSLCPKLWL | 4.81 ± 0.11 |
| DRVCGLPNVHSCVCYFAGRN | 5.47 ± 0.076 |
| YTWSSYD | -1.14 ± 0.36 |
| NIYNPVD | -0.196 ± 1.1 |
| FEGVTYSRVV | 0.001 ± 0.54 |
| FLNWCISKLR | -0.735 ± 1 |
| ERRTCTRLPNVSRARIR | 1.27 ± 0.21 |
| NEQIW | 0.023 ± 0.39 |
| KKVYVSDTIWMDYNNS | 3.93 ± 0.064 |
| NLNVIPDCLWFYDSRMLFFI | inactive |
| SYGDRLALQR | 0.546 ± 0.8 |
| LFWDLSY | -0.959 ± 0.36 |
| NEMGFSHISGEMCAP | -0.882 ± 0.24 |
| SNIVSWVIEDGVRKC | 4.5 ± 0.049 |
| CREEDGLLDVSYKRSDMGGS | -0.267 ± 0.65 |
| ANPFKSSDATVLVDVRGMGS | 3.09 ± 0.068 |
| YIWRLLLLRGCTVNFMSCNM | 5.62 ± 0.067 |
| VLQRCRTAVKPYQHNNCLIM | 2.26 ± 0.11 |
| RCIIIAM | 2.88 ± 0.12 |
| KEEVRSLFIGTFPKIFFGLH | 0.251 ± 0.46 |
| VQYLVDCMYWVQGMAVSE | 0.475 ± 0.46 |
| TQSNALPVGPYSFTFFGRGY | 0.54 ± 0.8 |
| HTGLSVGKFKVRHGNVHRVF | -0.181 ± 0.34 |

| Substance | amyloid nucleation score |
| --- | --- |
| VLPEWSLF | inactive |
| RLGSSEACPICLDHFGFIMF | -1.26 ± 0.54 |
| SYVFAPWFLVILPKSISMD | 4.58 ± 0.079 |
| SGAVHFQRRASCEGQDMLCW | -0.028 ± 0.26 |
| YRVVM | 1.22 ± 0.69 |
| FVFRWNSVPIRLRVEQGCVF | 0.532 ± 0.47 |
| FYAVHLCLTYALGCRLVTSC | -0.932 ± 0.76 |
| RYHVRMKISCRF | 2.74 ± 0.11 |
| GGKFSVIGVGHLLDGEH | 1.14 ± 0.15 |
| SVIDDHKKVKSGITRSYREK | 0.504 ± 0.15 |
| GVYIRVVSHEWVLFW | inactive |
| GGTGVAV | 0.183 ± 0.34 |
| LLLYEMFSKVGLLFPSYFKY | inactive |
| ISVKDCLYPQLL | -0.492 ± 1 |
| LVVIYMTRVGASTKLRVSVL | inactive |
| LSCRWHCIVTLDVAAYNEPE | 5.765 ± 0.044 |
| DSLKFSLRLVHLPLPIYGCC | 1.5 ± 0.43 |
| NSLLNFWEVTLLRGGTHMVF | -0.675 ± 0.29 |
| TWGFYAVTCLQLLPRFVKHV | -0.374 ± 0.33 |
| RTIANDWHSCFSGRNLHSSW | 0.808 ± 0.74 |
| VNKILQEYMACRRNLQTQMW | -0.215 ± 0.3 |
| NLRRKH | 0.294 ± 0.8 |
| ARLAPRSLPCKWSPVAEKQR | -0.098 ± 0.79 |
| RVDKGVEFSSTSGSVRNFSL | -0.83 ± 1.1 |
| STVEVRGYLDAVMVGVVSNS | 3.8 ± 0.052 |

| Substance | amyloid nucleation score |
| --- | --- |
| TGVLCGSYFFWLF | 5.15 ± 0.058 |
| CYHSQNDCHKVTWCFPYLAH | -0.449 ± 0.44 |
| VLKQLLFFS | 4.357 ± 0.039 |
| LYLLM | -0.358 ± 1 |
| WVSMVVCMVSYNSYFE | 5.48 ± 0.062 |
| LTCLLVRCSFVRCCVERPWS | -0.732 ± 0.54 |
| TGLVFVLMCKSCQWFFREML | -0.948 ± 0.42 |
| NVNGLLSTN | -0.172 ± 0.76 |
| LSSWS | -0.611 ± 0.44 |
| YSGDNVNVVKQRPSCFLISR | -0.24 ± 0.74 |
| YNAWSSWYLGVLRPIGCCNG | 9.703 ± 0.046 |
| YWFHDCMRCCGNKILLLPDI | -0.712 ± 1.1 |
| YVNRVSCKVASRNCHHNGKS | -0.235 ± 1.1 |
| YRLPRLRMLTLFLCFTNVGK | 1.37 ± 0.2 |
| NLNMVTWVRQTHI | -0.726 ± 0.32 |
| QALQFIVSQRL | 3.59 ± 0.11 |
| SISSVLCYWYKNHKNDIVSG | inactive |
| SVVWFNTMYLYDWLHKPICI | inactive |
| RFQVSLEILSIYRCRTTTD | 3.27 ± 0.15 |
| KNTVKDGWRMMMDGCMNTHW | 0.259 ± 0.15 |
| NSVFRTDCGKRGMVVPGRAH | 1.04 ± 0.35 |
| YCSQAYHAGRRSALEQDSCM | 0.734 ± 0.81 |
| TYDLGCDYPIVPYVNFLCM | 6.59 ± 0.072 |
| VYTSYGSRSFTFNRFNAWTD | -0.97 ± 0.78 |
| ASGEVMYVNHYVFPQAFTDE | inactive |

| Substance | amyloid nucleation score |
| --- | --- |
| YLRYLWSRQPCSAGSQVACR | -0.145 ± 1.1 |
| MNKCIWGIYYR | -1.6 ± 1.1 |
| LMAKLPAINEYPPF | -0.04 ± 0.56 |
| GYNQEYRLSTMKAMLGRLLV | inactive |
| WFTAVVLNS | 0.333 ± 0.25 |
| NRFFAALLFKADLFWSQF | -0.021 ± 0.76 |
| RKVRCRYSMT | 0.142 ± 0.6 |
| YIRLHYGGVRRKVFTTILVI | -0.26 ± 0.45 |
| SYVGMFRTLDVKLRLNKCGY | -0.038 ± 1.1 |
| FIRVLVWWYVCRLFPHCVAR | 0.554 ± 0.81 |
| NQNIVVAVEVQVWFICNFVH | 3.08 ± 0.1 |
| MRLHSLGRCGQWSCDVGRER | 0.918 ± 0.35 |
| GVTPG | 0.752 ± 0.16 |
| MYRCQSSVFIFGSYSPILCH | -0.303 ± 0.63 |
| FPSVLSFWKTMSVCGDHPYP | -0.686 ± 0.3 |
| TGWCGL | 5.54 ± 0.066 |
| LCNKVL | 0.27 ± 0.27 |
| FIEVTSRNT | -0.994 ± 0.42 |
| LDCNDYRDVCVSGFYVCIEG | -0.597 ± 0.27 |
| GEYISEGDCTCRLQRMVVIE | -0.025 ± 0.76 |
| LLFIVCRISLNIVGQVA | -0.137 ± 0.53 |
| SYSLRFWYIPVADFWLL | -0.938 ± 0.36 |
| HNYSD | 0.187 ± 0.56 |
| PYTSSLLLQDRVLARGAYCR | 1.25 ± 0.36 |
| QWTLVL | -0.599 ± 0.55 |

| Substance | amyloid nucleation score |
| --- | --- |
| FGLGVCNWIYGCKMDAFNSG | 6.223 ± 0.039 |
| DKPTCETTV | -0.659 ± 0.49 |
| TYGVVK | -0.047 ± 0.17 |
| LAQNEHTLVFILLTNGKS | 3.18 ± 0.046 |
| PLSLYNFIFYNAEVPYVVVT | 1.84 ± 0.1 |
| NARFSFKTLRYGGVLRKYPL | -0.363 ± 1.1 |
| GVLFAELLIFVVKSSVVV | 2.01 ± 0.23 |
| FSDNKLFA | 0.715 ± 0.81 |
| VYCLSVMSARSQFCVWGWML | 0.165 ± 1 |
| FYINTYQVSQGFIA | inactive |
| RAQYPFDSLSRGSGPVMWLS | 1 ± 0.57 |
| MRDRMVAAARLFRGVSRLAF | -0.268 ± 0.48 |
| TVCKPIRWLNNEFCDYVSNT | -0.644 ± 0.31 |
| NEHMIHIKSDLRYSAESKPY | 0.503 ± 0.18 |
| GGSSRQTHW | -0.375 ± 1.1 |
| SLQSYGVYR | -0.359 ± 0.76 |
| CLNWRSLSS | 3.34 ± 0.067 |
| DLRRDQRATTERGRVPVVKH | 4.817 ± 0.045 |
| RLGEWECTHQVPFHSRWACG | -0.087 ± 0.76 |
| YIVSSDLTGWGARRSCDFMA | 0.571 ± 0.47 |
| SVWTFLTCI | 0.906 ± 0.46 |
| IWESSIYLNEETNDCLEKL | inactive |
| YLVRMRYGAM | 0.763 ± 0.43 |
| IFHYAFC | 10.09 ± 0.061 |
| NIDSWVKGFVKY | -0.558 ± 1 |

| Substance | amyloid nucleation score |
| --- | --- |
| AIEYPYRCYRDVAWLRALAS | 0.582 ± 0.28 |
| QIPCCWGPYVWSRAMGCSLE | 1.78 ± 0.15 |
| ISFRFLAFCFFYDKVSLEQK | inactive |
| VVFFNGACALATLAAVSLGP | 6 ± 0.062 |
| KLMPLTTIPDEVWYFIGYRL | -0.501 ± 0.32 |
| LALWCTWEVRLIDESAMTTF | 0.467 ± 0.29 |
| YYTWDFWDIFRGWYRRDGIC | inactive |
| FRTYSAVVEWARNKYNLFCG | -0.271 ± 0.28 |
| SWTLFKTLMWIRHILFVECR | -0.973 ± 0.55 |
| SKPGNIKWYSGFSKRQREAA | inactive |
| LTYLTWFLSMDQGMLNWLHV | 0.973 ± 0.35 |
| ACANGDADVEWLSDFCEKDE | 1.02 ± 0.35 |
| SWGNLWKSYCAK | -0.55 ± 0.49 |
| FWKSWHTPRALAKNSPSAFL | -0.779 ± 0.64 |
| RQSKARLYCR | 0.397 ± 0.3 |
| GSLKEAAGEYMVCRVRLSVG | 0.26 ± 0.46 |
| FDKCLDKLMDKEKHALTFPQ | -0.453 ± 1.1 |
| NFYVVDQCSYRSGRLNIKWL | 4.13 ± 0.079 |
| PADSTMGK | -0.856 ± 0.29 |
| SIVSTGFVRDLNRTRCYSGG | 0.158 ± 0.56 |
| VWSNLSVRLRHI | -0.196 ± 1 |
| CLRYGISRWLRLFRINNVVE | 0.046 ± 0.34 |
| YLSVYCFMPVWDKWYRS | -1.57 ± 0.38 |
